From PMC5013695

Biological target: 14-3-3β (UniProt Q9CQV8)
Experiment: co-IP with anti-FLAG beads, 14-3-3β blot
Conditions: reference: FLAG-Bmal1 wild type; sites S42

Chain of UniProt Q9CQV8 (Q9CQV8 whole entry, looked up): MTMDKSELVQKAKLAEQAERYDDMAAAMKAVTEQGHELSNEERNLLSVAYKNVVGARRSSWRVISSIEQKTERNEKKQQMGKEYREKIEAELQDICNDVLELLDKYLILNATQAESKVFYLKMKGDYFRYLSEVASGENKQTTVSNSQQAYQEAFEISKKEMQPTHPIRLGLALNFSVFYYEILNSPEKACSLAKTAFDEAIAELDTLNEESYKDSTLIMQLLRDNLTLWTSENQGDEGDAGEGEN

binding against the reference: weaker
Substance: Bmal1 (from UniProt Q9WTL8-4) FLAG-Bmal1 S42A
